# Measurements published in publication PMC11822720.
# Biological target: Centrolobium microchaete seed lectin (Centrolobium microchaete)
# Assay: crystal structure; CML co-crystallised with 5 mM MDM; 200 mM ammonium sulfate, 100 mM HEPES pH 7.5, 25% PEG 3350; space group C121, one dimer per asymmetric unit; dimer also checked by PISA
substance,measurement,value
Centrolobium microchaete seed lectin (natural protein),stoichiometry N,2
